Consider one substance from patent US20160038588A1, “Myostatin Antagonism in Human Subjects” (AMGEN INC., priority 2013, published 2016).

Read-outs that look alike come from different tables or passages of the source.

Data set [1] is described as follows: Clinical study: pharmacokinetics of AMG 745 after weekly SC doses. Particulars: for AUC0-τ / Cmax / CL/F (apparent serum clearance, Dose/AUC Week 4): mean; for AUC0-τ: 7-day dosing interval; for Cmax: serum; for tmax: median.
Protocol: (§1) This was a multicenter, randomized, double-blind, placebo-controlled, ascending-multiple-dose study in men with prostate cancer receiving ADT. The trial was designed to evaluate the safety, tolerability, PK, and pharmacodynamics of AMG 745.
(§2) Subcutaneous doses of 0.3 mg/kg, 1.0 mg/kg, and 3.0 mg/kg, were each administered once weekly for 4 weeks, and were evaluated in sequential cohorts. Eight subjects, randomized in a 3:1 allocation ratio to AMG 745 or placebo, were enrolled in the 0.3 mg/kg dose cohort and in the 1.0 mg/kg dose cohort. To evaluate safety, tolerability, PK and the effect of 4 weekly doses on lean body mass, a total of thirty-eight subjects were enrolled in the 3.0 mg/kg dose cohort, randomized in a 1:1 allocation ratio to AMG 745 or placebo.
(§3) The following procedures were performed pre-study and periodically during the study for all cohorts: physical examination, vital signs, electrocardiogram, hematology, chemistry, urinalysis, anti-AMG 745 antibody screen, and blood sample draws for PK. For the 3 mg/kg cohort DXA and lower extremity CT scans were conducted predose and on study day 29 (end of study) and at the one month follow-up visit. All DXA scans were performed on a Hologic or GE Lunar scanner. The same scanner was to be used for all visits for an individual subject. All DXA scans were sent to a central reading facility for review and analysis.
(§4) The pharmacokinetic analyses included all treated subjects for whom the pharmacokinetic parameters could be estimated. Pharmacokinetic parameters were estimated using noncompartmental methods. Summary statistics by dose cohort were generated for each pharmacokinetic parameter. Graphs of serum AMG 745 concentration-time profiles for individual subjects and the means for each dose were prepared.
The conditions of data set [2]: human, in vivo, sc.
Protocol: as §1, §2, §3, §4
The mark [3] stands for this setting: Week 1 (Dose 1), 0.3 mg/kg SC once-weekly.
Where [4] appears, read: Week 1 (Dose 1), 1 mg/kg SC once-weekly.
Where [5] appears, read: Week 1 (Dose 1), 3 mg/kg SC once-weekly.
[6] abbreviates: Week 4 (Dose 4), 0.3 mg/kg SC once-weekly.
The mark [7] stands for this setting: Week 4 (Dose 4), 1 mg/kg SC once-weekly.
[8] abbreviates: Week 4 (Dose 4), 3 mg/kg SC once-weekly.

Turning to “AMG 745: anti-myostatin peptibody: human IgG1 Fc fused at C-terminus via GGGGGAQ linker to peptide SEQ ID NO:311; chain SEQ ID NO:635”, the “dose linearity of pharmacokinetics” value in data set [1] (4 weekly SC doses, 0.3 to 3 mg/kg) is on record as “dose-linear pharmacokinetics”. In addition, the AUC0-τ worked out at 68.0 µg·h/mL in data set [1] (setting [3]); 321 µg·h/mL in data set [1] (setting [4]); 800 µg·h/mL in data set [1] (setting [5]); 175 µg·h/mL in data set [1] (setting [6]); 556 µg·h/mL in data set [1] (setting [7]); 1380 µg·h/mL in data set [1] (setting [8]). Besides, the Cmax in data set [1] (setting [3]) is 502 ng/mL; in data set [1] (setting [4]), 2380 ng/mL; in data set [1] (setting [5]) it was 6380 ng/mL; in data set [1] (setting [6]), 1340 ng/mL; in data set [1] (setting [7]) it was 4170 ng/mL; in data set [1] (setting [8]) it was 10800 ng/mL. The tmax in data set [1] (Week 1 (Dose 1), 0.3 mg/kg SC once-weekly, men with prostate cancer on ADT) is 72.4 h; in data set [1] (Week 1 (Dose 1), 1 mg/kg SC once-weekly, men with prostate cancer on ADT), 24.3 h; in data set [1] (Week 1 (Dose 1), 3 mg/kg SC once-weekly, men with prostate cancer on ADT), 71.8 h; in data set [1] (setting [6]) it was 47.8 h; in data set [1] (setting [7]), 24.0 h; in data set [1] (setting [8]), 24.0 h. The “CL/F (apparent serum clearance, Dose/AUC Week 4)” value in data set [1] (setting [6]) amounted to 1.96 mL/h/kg; in data set [1] (setting [7]), 1.89 mL/h/kg; in data set [1] (setting [8]) it was 2.29 mL/h/kg. In addition, the “AR (accumulation ratio, AUC Week 4/AUC Week 1)” value in data set [2] (0.3 mg/kg) came to 2.55; in data set [2] (3 mg/kg), 1.78.
